Measured values as given in CN117164676A (UNIV XIAMEN; BEIJING WANTAI BIOLOGICAL PHARMACY ENTPR CO LTD, dated 2023).

B1: 抗VZV ORF9中和性单克隆抗体4E8 (antibody, IgG1, V domains shown)
VH: QVQLQQSGPELVKPGASVKMSCKTSGYTFTDDVISWVKQRTGQGLEWIGEINPGSGSIYYNEKFKGKATLTADKSSTTAYMQLSSLTSEDSAVYFCARSQYWGQGTTLTVSS
VL: DVVMTQTPLSLPVSLGDQASISCRSSQSLVHSNGNTYLHWYLQKPGQSPKLLIYKVSNRFSGVPDRFSGSGSGTDFTLKISRVEAEDLGVYFCSQSTHVPLTFGAGTKLELK
notes: also called 单抗4E8
B2: 抗VZV ORF9中和性单克隆抗体4E9 (antibody, IgG1, V domains shown)
VH: QVQLQQSGAELMKPGASVKISCKATGYTFSRYWIEWVKLRPGHGLDWIGEILPGSKTNYNEKFKGKATFTADTSSNTAYMQLSSLTSEDSAVYYCAREGFVYWGQGTLVTVSA
VL: DIKMTQSPSSMYASLGERVTITCKASQDINSYLSWLQQKPGKSPKTLIYRANRLVDGVPSRFSGSGSGQDYSLTISSLEYEDMGIYYCLQFDEFPYTFGGGTKLEI
notes: also called 单抗4E9
B3: 抗VZV ORF9中和性单克隆抗体13A7 (antibody, IgG1, V domains shown)
VH: QVQLQQSGAVLARPGASVKLSCKASGYTFTTYWVQWIKQRPGQGLEWIGTIYPGDGDARYAQKFKGKATLTATESSSTAYMQLSSLASEDSAVYYCSRREVYDDYAWFAYWGQGTLVTVSA
VL: QIVLSQSPAILSASPGEKVTMTCRASSSVHYMHWYQQKSGFSPKPWIYATSNLASGVPARFSGSESGTSYSLTISRVEAEDAATYFCQQWSTSPPTFGSGTKLEIK
notes: also called 单抗13A7

Tests used:
[1] = target: T1, VZV-ORF9-肽11 (Varicella-Zoster Virus, pOka毒株); assay: indirect ELISA, peptide coated at 1μg/孔
T1 construct: Synthetic 20-mer of ORF9; also called 111-130aa
T1 peptide: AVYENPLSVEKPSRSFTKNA

[2] = target: T2, 不含表位肽的载体蛋白(HBcAg) C149; assay: Western blot
T2 construct: also called 载体蛋白C149; 突变型HBc
T2 chain: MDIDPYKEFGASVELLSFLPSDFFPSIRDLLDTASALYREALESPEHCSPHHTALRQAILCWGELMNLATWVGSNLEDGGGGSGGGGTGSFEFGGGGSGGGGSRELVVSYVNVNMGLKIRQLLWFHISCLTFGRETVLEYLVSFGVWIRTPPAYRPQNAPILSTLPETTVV

[3] = target: T3, 水痘-带状疱疹病毒(VZV) pOka毒株ORF9蛋白 (Varicella-Zoster Virus, pOka毒株, UniProt P09272 1-302); assay: cell-based or functional assay
T3 sequence: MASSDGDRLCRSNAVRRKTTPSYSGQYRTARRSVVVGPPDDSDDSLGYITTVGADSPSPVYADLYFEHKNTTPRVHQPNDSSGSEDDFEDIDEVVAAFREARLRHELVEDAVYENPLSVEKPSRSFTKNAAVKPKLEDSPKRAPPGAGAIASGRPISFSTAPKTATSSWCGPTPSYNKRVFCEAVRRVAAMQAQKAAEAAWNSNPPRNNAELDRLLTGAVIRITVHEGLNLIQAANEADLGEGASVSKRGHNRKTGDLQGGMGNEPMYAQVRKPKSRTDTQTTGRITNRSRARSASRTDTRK

[4] = target: T4, 融合蛋白VZV-ORF9-F2-8; assay: Western blot, antibody at 2μg/mL
T4 chain: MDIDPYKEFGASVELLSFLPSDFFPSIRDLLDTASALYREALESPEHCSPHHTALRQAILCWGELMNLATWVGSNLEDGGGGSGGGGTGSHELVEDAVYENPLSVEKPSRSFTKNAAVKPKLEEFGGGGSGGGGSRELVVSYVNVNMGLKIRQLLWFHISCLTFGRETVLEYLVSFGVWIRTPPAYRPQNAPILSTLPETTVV

[5] = target: T5, 融合蛋白VZV-ORF9-F2-6; assay: Western blot, antibody at 2μg/mL
T5 chain: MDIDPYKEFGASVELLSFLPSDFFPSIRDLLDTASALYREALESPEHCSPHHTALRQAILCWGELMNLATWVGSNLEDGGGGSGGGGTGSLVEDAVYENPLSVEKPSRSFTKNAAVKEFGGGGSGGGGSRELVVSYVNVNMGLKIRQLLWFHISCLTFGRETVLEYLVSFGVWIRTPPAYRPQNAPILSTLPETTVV

[6] = target: T6, 融合蛋白VZV-ORF9-F2-1; assay: Western blot, antibody at 2μg/mL
T6 chain: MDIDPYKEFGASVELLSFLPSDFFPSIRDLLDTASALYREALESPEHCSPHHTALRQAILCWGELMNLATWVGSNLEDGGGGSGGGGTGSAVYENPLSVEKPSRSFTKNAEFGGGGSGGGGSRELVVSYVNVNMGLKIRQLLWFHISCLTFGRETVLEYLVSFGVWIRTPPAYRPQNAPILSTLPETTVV

[7] = target: T7, 融合蛋白VZV-ORF9-F2-3; assay: Western blot, antibody at 2μg/mL
T7 chain: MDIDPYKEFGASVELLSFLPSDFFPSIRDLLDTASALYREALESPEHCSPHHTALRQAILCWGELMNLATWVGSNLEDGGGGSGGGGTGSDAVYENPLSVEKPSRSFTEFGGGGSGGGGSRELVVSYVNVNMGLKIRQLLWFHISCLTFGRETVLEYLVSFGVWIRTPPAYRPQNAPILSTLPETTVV

[8] = target: T8, 融合蛋白VZV-ORF9-F2-7; assay: Western blot, antibody at 2μg/mL
T8 chain: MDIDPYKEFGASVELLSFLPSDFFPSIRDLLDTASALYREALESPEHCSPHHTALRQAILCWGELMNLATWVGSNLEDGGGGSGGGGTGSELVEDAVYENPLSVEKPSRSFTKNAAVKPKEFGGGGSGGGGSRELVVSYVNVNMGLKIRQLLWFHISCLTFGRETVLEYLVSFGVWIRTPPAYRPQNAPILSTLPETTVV

[9] = target: T9, 融合蛋白VZV-ORF9-F2-5; assay: Western blot, antibody at 2μg/mL
T9 chain: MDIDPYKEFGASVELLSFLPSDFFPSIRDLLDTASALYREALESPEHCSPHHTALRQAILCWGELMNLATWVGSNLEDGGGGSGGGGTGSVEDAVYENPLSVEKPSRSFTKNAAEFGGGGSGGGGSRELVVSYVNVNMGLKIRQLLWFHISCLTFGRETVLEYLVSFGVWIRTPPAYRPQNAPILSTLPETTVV

[10] = target: T10, 融合蛋白VZV-ORF9-F2-4; assay: Western blot, antibody at 2μg/mL
T10 chain: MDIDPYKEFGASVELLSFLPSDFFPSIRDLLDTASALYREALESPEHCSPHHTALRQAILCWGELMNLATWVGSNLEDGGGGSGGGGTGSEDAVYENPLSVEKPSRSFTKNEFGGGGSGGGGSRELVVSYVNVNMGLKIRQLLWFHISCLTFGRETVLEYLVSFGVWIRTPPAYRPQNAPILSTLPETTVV

[11] = target: T11, 融合蛋白VZV-ORF9-F2-2; assay: Western blot, antibody at 2μg/mL
T11 chain: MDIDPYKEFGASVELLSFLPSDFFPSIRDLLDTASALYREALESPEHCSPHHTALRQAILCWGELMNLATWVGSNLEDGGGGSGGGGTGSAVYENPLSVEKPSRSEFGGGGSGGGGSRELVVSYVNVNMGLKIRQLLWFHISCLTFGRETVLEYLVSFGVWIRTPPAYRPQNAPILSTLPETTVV

[12] = target: T12, VZV-ORF9-肽9 (Varicella-Zoster Virus, pOka毒株); assay: indirect ELISA, peptide coated at 1μg/孔
T12 construct: Synthetic 20-mer of ORF9; also called 91-110aa
T12 peptide: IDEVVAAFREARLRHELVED

[13] = target: T13, 融合蛋白VZV-ORF9-F1; assay: Western blot, antibody at 2μg/mL
T13 construct: Expressed in E. coli, forms virus-like particles; Run on SDS-PAGE for the Western blot
T13 chain: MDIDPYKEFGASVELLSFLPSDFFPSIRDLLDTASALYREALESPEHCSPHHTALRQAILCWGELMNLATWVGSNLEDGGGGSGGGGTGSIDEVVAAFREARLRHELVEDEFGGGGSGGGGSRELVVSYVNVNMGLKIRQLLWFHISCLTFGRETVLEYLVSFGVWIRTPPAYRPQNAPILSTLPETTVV

[14] = target: T14, VZV-ORF9-肽12 (Varicella-Zoster Virus, pOka毒株); assay: indirect ELISA, peptide coated at 1μg/孔
T14 construct: Synthetic 20-mer of ORF9; also called 121-140aa
T14 peptide: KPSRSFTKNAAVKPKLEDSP

[15] = target: T15, 融合蛋白VZV-ORF9-F3; assay: Western blot, antibody at 2μg/mL
T15 chain: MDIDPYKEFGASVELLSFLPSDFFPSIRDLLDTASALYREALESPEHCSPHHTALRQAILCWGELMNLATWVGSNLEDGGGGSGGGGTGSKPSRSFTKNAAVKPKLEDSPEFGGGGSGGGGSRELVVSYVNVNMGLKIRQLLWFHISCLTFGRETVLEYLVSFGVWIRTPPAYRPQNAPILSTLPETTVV

Binder	binding result [1]	binding result [2]	中和效价 (ELISPOT中和实验, VZV pOka, ARPE-19细胞) [3]	binding result [4]	binding result [5]	binding result [6]	binding result [7]	binding result [8]	binding result [9]	binding result [10]	binding result [11]	binding result [12]	binding result [13]	binding result [14]	binding result [15]
B1	binds	no binding (tested: 2μg/mL)	32 dilution 1:x of the 1 mg/mL stock	binds	binds	binds	binds	binds	binds	binds	binds	–	–	–	–
B2	–	no binding (tested: 2μg/mL)	16 dilution 1:x of the 1 mg/mL stock	–	–	–	–	–	–	–	–	binds	binds	–	–
B3	–	no binding (tested: 2μg/mL)	16 dilution 1:x of the 1 mg/mL stock	–	–	–	–	–	–	–	–	–	–	binds	binds
